What was measured:
[1] = target: T1, Human CLEC12A-His (recombinant, K244 WT) (human, UniProt Q5QGZ9 65-265); experiment: SPR, two-state fit; control (fully purified protein study)
T1 construct: Made in house (Dragonfly Tx); also called hCLEC12A; hCLEC12A-His; not shown: His tag
T1 sequence: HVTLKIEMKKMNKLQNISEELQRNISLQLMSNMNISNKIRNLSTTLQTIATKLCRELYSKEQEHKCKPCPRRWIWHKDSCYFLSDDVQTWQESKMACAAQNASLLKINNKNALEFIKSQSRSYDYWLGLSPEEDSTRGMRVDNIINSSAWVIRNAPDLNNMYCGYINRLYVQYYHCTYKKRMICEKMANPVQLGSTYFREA

[2] = target: T1, Human CLEC12A-His (recombinant, K244 WT); experiment: SPR, two-state fit (ka1); after pH 5.0, 40C, 2 wks
[3] = target: T2, mFc-hNKG2D (recombinant mFc-tagged human NKG2D dimer) (human, UniProt P26718 73-216); experiment: SPR; control sample
T2 construct: extracellular domain; Made in house; not shown: mouse Fc tag
T2 sequence (looked up): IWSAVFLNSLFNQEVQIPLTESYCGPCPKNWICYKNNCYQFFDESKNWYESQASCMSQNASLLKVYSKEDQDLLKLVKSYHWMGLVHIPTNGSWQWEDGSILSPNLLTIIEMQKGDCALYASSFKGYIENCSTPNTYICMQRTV

[4] = target: T3, Human CD16a V158 (FcγRIIIa V158) (human, UniProt P08637 17-208, biotinylated); experiment: SPR; control sample
T3 construct: Bought recombinant receptor; also called hCD16aV; hFcγRIIIa V158
T3 sequence (P08637 17-208 F176V limits assumed): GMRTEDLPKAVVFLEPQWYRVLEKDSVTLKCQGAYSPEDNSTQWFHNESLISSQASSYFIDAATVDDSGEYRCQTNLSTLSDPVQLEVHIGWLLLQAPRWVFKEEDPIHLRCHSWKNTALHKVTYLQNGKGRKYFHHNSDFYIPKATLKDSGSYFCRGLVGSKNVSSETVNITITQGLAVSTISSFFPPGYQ

[5] = target: T4, De-sialylated human CLEC12A (human, UniProt Q5QGZ9 65-265, treated with neuraminidase (terminal sialic acids removed)); experiment: SPR, two-state fit (ka1)
T4 construct: Same recombinant antigen as m2 after neuraminidase; also called De-sialylated CLEC12A
T4 sequence: T1 sequence

[6] = target: T5, De-glycosylated human CLEC12A (human, UniProt Q5QGZ9 65-265, treated with PNGaseF (N-linked glycans removed)); experiment: SPR, two-state fit (ka1)
T5 construct: Same recombinant antigen as m2 after PNGaseF; also called De-glycosylated CLEC12A
T5 sequence: T1 sequence

[7] = target: T1, Human CLEC12A-His (recombinant, K244 WT); experiment: SPR, two-state fit (kd1); after pH 8, 40C, 2 wks

B1: AB0089 TriNKET (bispecific antibody, human IgG1, kappa)
chain: QLQLQESGPGLVKPSETLSLTCTVSGFSLTNYGLHWIRQPPGKCLEWIGVIWVGGATDYNPSLKSRVTISVDTSKNQFSLKLSSVQAADTAVYYCAKGDYGDTLDYWGQGTLVTVSSGGGGSGGGGSGGGGSGGGGSDIQMTQSPSSLSASVGDRVTITCHASQNINFWLSWYQQKPGKAPKLLIYEASNLHTGVPSRFSGSGSGTDFTLTISSLQPEDFATYYCQQSHSYPLTFGCGTKLEIKGSDKTHTCPPCPAPELLGGPSVFLFPPKPKDTLMISRTPEVTCVVVDVSHEDPEVKFNWYVDGVEVHNAKTKPREEQYNSTYRVVSVLTVLHQDWLNGKEYKCKVSNKALPAPIEKTISKAKGQPREPRVYTLPPCRDELTKNQVSLTCLVKGFYPSDIAVEWESNGQPENNYKTTPPVLVSDGSFTLYSKLTVDKSRWQQGNVFSCSVMHEALHNHYTQKSLSLSPG
heavy: EVQLVESGGGLVKPGGSLRLSCAASGFTFSSYSMNWVRQAPGKGLEWVSSISSSSSYIYYADSVKGRFTISRDNAKNSLYLQMNSLRAEDTAVYYCARGAPIGAAAGWFDPWGQGTLVTVSSASTKGPSVFPLAPSSKSTSGGTAALGCLVKDYFPEPVTVSWNSGALTSGVHTFPAVLQSSGLYSLSSVVTVPSSSLGTQTYICNVNHKPSNTKVDKKVEPKSCDKTHTCPPCPAPELLGGPSVFLFPPKPKDTLMISRTPEVTCVVVDVSHEDPEVKFNWYVDGVEVHNAKTKPREEQYNSTYRVVSVLTVLHQDWLNGKEYKCKVSNKALPAPIEKTISKAKGQPREPQVCTLPPSRDELTENQVSLTCLVKGFYPSDIAVEWESNGQPENNYKTTPPVLDSDGSFFLYSWLTVDKSRWQQGNVFSCSVMHEALHNHYTQKSLSLSPG
light: DIQMTQSPSSVSASVGDRVTITCRASQGISSWLAWYQQKPGKAPKLLIYAASSLQSGVPSRFSGSGSGTDFTLTISSLQPEDFATYYCQQGVSFPRTFGGGTKVEIKRTVAAPSVFIFPPSDEQLKSGTASVVCLLNNFYPREAKVQWKVDNALQSGNSQESVTEQDSKDSTYSLSSTLTLSKADYEKHKVYACEVTHQGLSSPVTKSFNRGEC
notes: F3' format heterodimer of three chains; human IgG1 Fc with EW-RVT and Y349C/S354C mutations; also called AB0089 Lot AB0089-002; CLEC12A TriNKET AB0089
Kd [1]: 0.51 nM | kon [2]: 8.62e+06 M⁻¹ s⁻¹ | Kd [3]: 772 nM | koff [3]: 0.135 s⁻¹ | kon [3]: 175000 M⁻¹ s⁻¹ | Kd [4]: 323 nM | koff [4]: 0.0276 s⁻¹ | kon [4]: 85300 M⁻¹ s⁻¹ | kon [5]: 2.09e+07 M⁻¹ s⁻¹ | kon [6]: 8.96e+06 M⁻¹ s⁻¹ | koff [7]: 0.049 s⁻¹

Source: patent US20220119534A1 (DRAGONFLY THERAPEUTICS, published 2022)
